T1: EsCas13d, nuclease-dead (Eubacterium siraeum, UniProt B0MS50, R295A;H300A;R849A;H854A)
T1 sequence: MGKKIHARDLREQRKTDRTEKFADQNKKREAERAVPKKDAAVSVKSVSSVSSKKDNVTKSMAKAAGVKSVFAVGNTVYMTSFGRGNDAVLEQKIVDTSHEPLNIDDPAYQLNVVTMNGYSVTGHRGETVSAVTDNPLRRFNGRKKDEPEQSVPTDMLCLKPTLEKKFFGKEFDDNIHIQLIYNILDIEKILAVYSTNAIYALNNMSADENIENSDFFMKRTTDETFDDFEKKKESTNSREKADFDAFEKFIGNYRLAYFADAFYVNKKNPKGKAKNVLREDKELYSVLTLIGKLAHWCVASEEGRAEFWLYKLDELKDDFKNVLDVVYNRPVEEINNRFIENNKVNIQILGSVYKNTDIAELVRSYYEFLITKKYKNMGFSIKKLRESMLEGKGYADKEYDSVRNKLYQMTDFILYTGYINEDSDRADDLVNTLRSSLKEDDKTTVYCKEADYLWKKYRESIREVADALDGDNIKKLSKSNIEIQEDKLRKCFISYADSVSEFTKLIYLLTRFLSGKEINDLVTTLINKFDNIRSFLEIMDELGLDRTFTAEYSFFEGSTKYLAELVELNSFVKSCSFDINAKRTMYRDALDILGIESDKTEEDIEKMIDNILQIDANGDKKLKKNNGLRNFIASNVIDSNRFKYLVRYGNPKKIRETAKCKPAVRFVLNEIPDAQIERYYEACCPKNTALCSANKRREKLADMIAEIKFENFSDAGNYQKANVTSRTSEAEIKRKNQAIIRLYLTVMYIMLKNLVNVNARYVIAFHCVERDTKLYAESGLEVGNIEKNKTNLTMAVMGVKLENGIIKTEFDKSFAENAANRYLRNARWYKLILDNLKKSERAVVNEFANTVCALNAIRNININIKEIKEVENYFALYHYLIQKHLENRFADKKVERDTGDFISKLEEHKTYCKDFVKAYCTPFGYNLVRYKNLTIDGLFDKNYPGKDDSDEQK

B1: target 3 insC 3' of 12,insG 3' of 2 (mixed)
RNA 1: CACCCGUGCAAAAUUGCAGGGGUCUAAAACGACCUGAAUAUUUCAGAUCAAA
RNA 2: GGGAAUGGAUCCACAUCUACGAAUUCGUUUUUGAUCUGAACAUAUUCAGGUGCUGCAGAUCGGAAGAGCACACGU
B2: target 3 insA 3' of 4 (mixed)
RNA 1: CACCCGUGCAAAAUUGCAGGGGUCUAAAACGACCUGAAUAUUUCAGAUCAAA
RNA 2: GGGAAUGGAUCCACAUCUACGAAUUCGUUUUUGAUCUGAAAUAUUCAGAGUCUGCAGAUCGGAAGAGCACACGU
B3: target 3 insA 3' of 22,insG 3' of 7 (mixed)
RNA 1: CACCCGUGCAAAAUUGCAGGGGUCUAAAACGACCUGAAUAUUUCAGAUCAAA
RNA 2: GGGAAUGGAUCCACAUCUACGAAUUCGUUUAUUGAUCUGAAAUAUUGCAGGUCUGCAGAUCGGAAGAGCACACGU
B4: target 3 insC 3' of 11,insC 3' of 3 (mixed)
RNA 1: CACCCGUGCAAAAUUGCAGGGGUCUAAAACGACCUGAAUAUUUCAGAUCAAA
RNA 2: GGGAAUGGAUCCACAUCUACGAAUUCGUUUUUGAUCUGAAACUAUUCAGGCUCUGCAGAUCGGAAGAGCACACGU
B5: target 3 insU 3' of 9,insG 3' of 8 (mixed)
RNA 1: CACCCGUGCAAAAUUGCAGGGGUCUAAAACGACCUGAAUAUUUCAGAUCAAA
RNA 2: GGGAAUGGAUCCACAUCUACGAAUUCGUUUUUGAUCUGAAAUAUUGUCAGGUCUGCAGAUCGGAAGAGCACACGU
B6: target 3 G3C,A18G (mixed)
RNA 1: CACCCGUGCAAAAUUGCAGGGGUCUAAAACGACCUGAAUAUUUCAGAUCAAA
RNA 2: GGGAAUGGAUCCACAUCUACGAAUUCGUUUUUGGUCUGAAAUAUUCAGCUCUGCAGAUCGGAAGAGCACACGU
B7: target 3 complement block 4-6 (mixed)
RNA 1: CACCCGUGCAAAAUUGCAGGGGUCUAAAACGACCUGAAUAUUUCAGAUCAAA
RNA 2: GGGAAUGGAUCCACAUCUACGAAUUCGUUUUUGAUCUGAAAUAUUGUCGUCUGCAGAUCGGAAGAGCACACGU
B8: target 3 A5G,A9G (mixed)
RNA 1: CACCCGUGCAAAAUUGCAGGGGUCUAAAACGACCUGAAUAUUUCAGAUCAAA
RNA 2: GGGAAUGGAUCCACAUCUACGAAUUCGUUUUUGAUCUGAAAUGUUCGGGUCUGCAGAUCGGAAGAGCACACGU
B9: target 3 insU 3' of 22,insC 3' of 3 (mixed)
RNA 1: CACCCGUGCAAAAUUGCAGGGGUCUAAAACGACCUGAAUAUUUCAGAUCAAA
RNA 2: GGGAAUGGAUCCACAUCUACGAAUUCGUUUUUUGAUCUGAAAUAUUCAGGCUCUGCAGAUCGGAAGAGCACACGU
B10: target 3 U2G,A11G (mixed)
RNA 1: CACCCGUGCAAAAUUGCAGGGGUCUAAAACGACCUGAAUAUUUCAGAUCAAA
RNA 2: GGGAAUGGAUCCACAUCUACGAAUUCGUUUUUGAUCUGAAGUAUUCAGGGCUGCAGAUCGGAAGAGCACACGU
B11: target 1 C7U,U10G (mixed)
RNA 1: CACCCGUGCAAAAAUGCAGGGGUCUAAAACUGAGCGGAUAACCUCUCUAUGG
RNA 2: GGGAAUGGAUCCACAUCUACGAAUUCGUACCAUAGAGAGGUGAUUCGCUCACCGAGAUCGGAAGAGCACACGU
B12: target 3 U2G,G4C (mixed)
RNA 1: CACCCGUGCAAAAUUGCAGGGGUCUAAAACGACCUGAAUAUUUCAGAUCAAA
RNA 2: GGGAAUGGAUCCACAUCUACGAAUUCGUUUUUGAUCUGAAAUAUUCACGGCUGCAGAUCGGAAGAGCACACGU
B13: target 3 insC 3' of 5,insU 3' of 5 (mixed)
RNA 1: CACCCGUGCAAAAUUGCAGGGGUCUAAAACGACCUGAAUAUUUCAGAUCAAA
RNA 2: GGGAAUGGAUCCACAUCUACGAAUUCGUUUUUGAUCUGAAAUAUUCACUGGUCUGCAGAUCGGAAGAGCACACGU
B14: target 3 G4C,A5G (mixed)
RNA 1: CACCCGUGCAAAAUUGCAGGGGUCUAAAACGACCUGAAUAUUUCAGAUCAAA
RNA 2: GGGAAUGGAUCCACAUCUACGAAUUCGUUUUUGAUCUGAAAUAUUCGCGUCUGCAGAUCGGAAGAGCACACGU
B15: target 3 U2A,A5G (mixed)
RNA 1: CACCCGUGCAAAAUUGCAGGGGUCUAAAACGACCUGAAUAUUUCAGAUCAAA
RNA 2: GGGAAUGGAUCCACAUCUACGAAUUCGUUUUUGAUCUGAAAUAUUCGGGACUGCAGAUCGGAAGAGCACACGU
B16: target 3 insC 3' of 22,insU 3' of 5 (mixed)
RNA 1: CACCCGUGCAAAAUUGCAGGGGUCUAAAACGACCUGAAUAUUUCAGAUCAAA
RNA 2: GGGAAUGGAUCCACAUCUACGAAUUCGUUUCUUGAUCUGAAAUAUUCAUGGUCUGCAGAUCGGAAGAGCACACGU
B17: target 3 insA 3' of 14,insC 3' of 3 (mixed)
RNA 1: CACCCGUGCAAAAUUGCAGGGGUCUAAAACGACCUGAAUAUUUCAGAUCAAA
RNA 2: GGGAAUGGAUCCACAUCUACGAAUUCGUUUUUGAUCUGAAAAUAUUCAGGCUCUGCAGAUCGGAAGAGCACACGU
B18: target 3 G3U,A5U (mixed)
RNA 1: CACCCGUGCAAAAUUGCAGGGGUCUAAAACGACCUGAAUAUUUCAGAUCAAA
RNA 2: GGGAAUGGAUCCACAUCUACGAAUUCGUUUUUGAUCUGAAAUAUUCUGUUCUGCAGAUCGGAAGAGCACACGU
B19: target 3 U8G,U22C (mixed)
RNA 1: CACCCGUGCAAAAUUGCAGGGGUCUAAAACGACCUGAAUAUUUCAGAUCAAA
RNA 2: GGGAAUGGAUCCACAUCUACGAAUUCGUUCUUGAUCUGAAAUAGUCAGGUCUGCAGAUCGGAAGAGCACACGU
B20: target 3 insC 3' of 8,insA 3' of 7 (mixed)
RNA 1: CACCCGUGCAAAAUUGCAGGGGUCUAAAACGACCUGAAUAUUUCAGAUCAAA
RNA 2: GGGAAUGGAUCCACAUCUACGAAUUCGUUUUUGAUCUGAAAUAUCUACAGGUCUGCAGAUCGGAAGAGCACACGU
B21: target 1 A1G,U8A (mixed)
RNA 1: CACCCGUGCAAAAAUGCAGGGGUCUAAAACUGAGCGGAUAACCUCUCUAUGG
RNA 2: GGGAAUGGAUCCACAUCUACGAAUUCGUACCAUAGAGAGGUUAACCGCUCGCCGAGAUCGGAAGAGCACACGU
B22: target 3 G4C,U8G (mixed)
RNA 1: CACCCGUGCAAAAUUGCAGGGGUCUAAAACGACCUGAAUAUUUCAGAUCAAA
RNA 2: GGGAAUGGAUCCACAUCUACGAAUUCGUUUUUGAUCUGAAAUAGUCACGUCUGCAGAUCGGAAGAGCACACGU
B23: target 3 insA 3' of 22,insC 3' of 22 (mixed)
RNA 1: CACCCGUGCAAAAUUGCAGGGGUCUAAAACGACCUGAAUAUUUCAGAUCAAA
RNA 2: GGGAAUGGAUCCACAUCUACGAAUUCGUUUACUUGAUCUGAAAUAUUCAGGUCUGCAGAUCGGAAGAGCACACGU
B24: target 3 insA 3' of 10,insU 3' of 5 (mixed)
RNA 1: CACCCGUGCAAAAUUGCAGGGGUCUAAAACGACCUGAAUAUUUCAGAUCAAA
RNA 2: GGGAAUGGAUCCACAUCUACGAAUUCGUUUUUGAUCUGAAAUAAUUCAUGGUCUGCAGAUCGGAAGAGCACACGU

Each binder was assayed against T1, EsCas13d, nuclease-dead (assay: crRNA (strand 1, pre-loaded); Mg2+; 40 mM Tris-HCl pH 7.5, 150 mM NaCl, 6 mM MgCl2, 1 mM DTT, 0.1% Tween-20, 0.2 mg/ml BSA; 25 C; 10 min per concentration, then washed). Conditions: tags: His6-TwinStrep-SUMO cleaved; N-terminal SNAP kept (SNAP-Surface 488); label: 3' end held by stalled T7 RNA polymerase.
Binder B1 has a Kd of 94 ± 39.5 nM. In the case of B2, the Kd is reported as 65.5 ± 15 nM. Work on B3 yielded a Kd of 96 ± 32.5 nM. B4 was tested, and the Kd was 50 ± 6 nM. In the case of B5, the Kd is reported as 82 ± 19 nM. Work on B6 yielded a Kd of 38.7 ± 6.25 nM. B7 was tested, and the Kd was 23.7 ± 2.45 nM. B8 was tested, and the Kd was 73 ± 14 nM. For B9, the Kd was 12.2 ± 1.35 nM. Work on B10 yielded a Kd of 62.5 ± 12 nM. In the case of B11, the Kd is reported as 11.2 ± 0.5 nM. In the case of B12, the Kd is reported as 3.65 ± 0.55 nM. Binder B13 has a Kd of 5.23 ± 0.375 nM. In the case of B14, the Kd is reported as 14.7 ± 1.1 nM. B15 showed a Kd of 3.12 ± 0.355 nM. For B16, the Kd was 12.3 ± 1.6 nM. For B17, the Kd was 59 ± 9.5 nM. Binder B18 has a Kd of 32.5 ± 4.5 nM. B19 showed a Kd of 90 ± 40 nM. Binder B20 has a Kd of 40.5 ± 4 nM. In the case of B21, the Kd is reported as 31.7 ± 1.8 nM. With B22 the Kd was 69 ± 8 nM. Work on B23 yielded a Kd of 15 ± 1.4 nM. B24 was tested, and the Kd was 58.5 ± 6.5 nM.

From paper PMC10786891, “Massively parallel profiling of RNA-targeting CRISPR-Cas13d”
